± gives the standard deviation of the averaged measurements.
System: Saccharomyces cerevisiae
Assay: protein stability index of tFT-peptide fusion (C-terminal peptide) (PSI (0-1 scale)); higher = more stable (slower turnover)
Details: genetic background: wild type; temperature: 30 C
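Further: PSI is a weighted mean of sequencing reads over stability bins, variants kept only with over 10 reads, mCherry proximal and sfGFP distal, peptide attached via GGGS linker.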

Sequence	protein stability index
SRPTSGPPQPPL	0.707 ± 0.022
SRPVSSFPPPLR	0.664 ± 0.071
SRQDLPKYVYLY	0.508 ± 0.016
SRRENEVIGGAE	0.725 ± 0.068
SRRGARRHVRLK	0.6757 ± 0.00074
SRRGFTHDGLKD	0.645 ± 0.032
SRRLQSPVRVVT	0.773 ± 0.15
SRRRSPARPSLP	0.7462 ± 0.0045
SRRRVTSCTARG	0.729 ± 0.018
SRRSCTLLSTTW	0.698 ± 0.022
SRRSVVRPPCIG	0.656 ± 0.056
SRRVSLGLSVDS	0.662 ± 0.074
SRSETIQTGIGW	0.706 ± 0.012
SRSISCPVLSKI	0.707 ± 0.017
SRSKVVVHNSYW	0.724 ± 0.14
SRSSPLYRRGVR	0.679 ± 0.089
SRTLYERTRFVL	0.647 ± 0.018
SRVPTSRARKRS	0.7001 ± 0.0042
SSCLDAHPPSSS	0.736 ± 0.072
SSCLRQGVGACG	0.702 ± 0.018
SSDFTSRHTRPP	0.639 ± 0.035
SSDSYANLNWVI	0.741 ± 0.038
SSEECYDTKGEL	0.674 ± 0.027
SSENIQLADQLR	0.702 ± 0.046
SSFLLGCAFPLG	0.688 ± 0.0075
SSFLSFSSGCQS	0.757 ± 0.045

Sequence	protein stability index
SSFNSCQFVLSY	0.563 ± 0.011
SSFSACPTKIII	0.686 ± 0.048
SSGCVNILIDLF	0.638 ± 0.011
SSGKRANINKNK	0.695 ± 0.022
SSGVCSGTSALN	0.681 ± 0.033
SSHWGRSRLASG	0.674 ± 0.1
SSIVGRLLSTNT	0.664 ± 0.071
SSLLLPALSPSV	0.647 ± 0.077
SSLLSLAFFAPS	0.7147 ± 0.0056
SSLPAPSPVPSP	0.731 ± 0.081
SSLPPPRLFLLP	0.697 ± 0.085
SSLQGSCPSKSL	0.7 ± 0.044
SSLTTCFLSFPP	0.668 ± 0.066
SSLVRFDSSAPL	0.665 ± 0.033
SSNLLFCSIFYV	0.6181 ± 0.0021
SSNRKLVRLASS	0.69 ± 0.084
SSNSSFFIWGLV	0.7119 ± 0.00078
SSPIRPFLPPGY	0.6709 ± 0.0049
SSPLWCFRLVFF	0.583 ± 0.015
SSPNPPRELGPY	0.607 ± 0.055
SSPPAPHGAHPP	0.752 ± 0.0099
SSPPAPHLAPPP	0.703 ± 0.053
SSPPPPALPEYQ	0.699 ± 0.0082
SSPRANAYASCP	0.726 ± 0.16
SSPSSFLTLLFI	0.621 ± 0.069
SSRLVFFLPSLR	0.6966 ± 0.0022

Sequence	protein stability index
SSRPLYLFSALR	0.689 ± 0.053
SSRTFRFRPPTI	0.702 ± 0.01
SSRWSMEHMAAW	0.715 ± 0.059
SSSACNMPVVRL	0.705 ± 0.05
SSSCRPVSSAIV	0.651 ± 0.089
SSSLLFVLGPSW	0.715 ± 0.034
SSSLRLCSCAGQ	0.723 ± 0.049
SSSRCPRLPLPS	0.6358 ± 0.0012
SSSVLPESFSPS	0.687 ± 0.036
SSSYCHPSCVSC	0.661 ± 0.14
SSTALAFAPYLL	0.6894 ± 0.005
SSTEYYDIRKIR	0.675 ± 0.025
SSTFPRPSLRPV	0.64 ± 0.091
SSVRIGRNLYVW	0.754 ± 0.13
SSVRPHPAPPHT	0.701 ± 0.01
SSVSARHVPCSP	0.689 ± 0.027
SSVSRIYTPSSL	0.677 ± 0.12
SSVYLRRSCDHD	0.699 ± 0.017
SSWEMMLYRLTE	0.693 ± 0.021
STCRCGGFRNGS	0.762 ± 0.068
STEHAPDLKSER	0.695 ± 0.077
STEIHIKLNAWT	0.687 ± 0.082
STGRLQLGNCLT	0.635 ± 0.015
STLSSRLSLPYR	0.728 ± 0.07
STPDIRYFPPWC	0.706 ± 0.027
STPLPPLSLPLF	0.685 ± 0.016

Sequence	protein stability index
STQDIRTTKRVA	0.681 ± 0.077
STRTNPSYFTYQ	0.675 ± 0.013
STTIRTPSGMFR	0.661 ± 0.0057
STTPASLLGHVF	0.6441 ± 0.0061
STVLGPPLGLGT	0.69 ± 0.054
STVPSLVAGATF	0.729 ± 0.11
SVARGGGVVEWG	0.705 ± 0.13
SVATFDLHAGEW	0.75 ± 0.01
SVAVTGSTLVLI	0.628 ± 0.036
SVCLRASSCFRS	0.648 ± 0.051
SVCPQALNLPPH	0.723 ± 0.043
SVFSVVLSLSGS	0.706 ± 0.051
SVGGILWLMLEG	0.677 ± 0.044
SVIFSRSFCCPS	0.639 ± 0.11
SVLCRIGAGCAM	0.629 ± 0.018
SVLEGGRWGFTR	0.758 ± 0.038
SVLFDIGFSCRF	0.808 ± 0.026
SVLLRPPLLFHP	0.722 ± 0.019
SVLPELHAVPLF	0.679 ± 0.008
SVQWPITIEVWK	0.631 ± 0.014
SVRFPPTFTMTL	0.701 ± 0.042
SVSNSRCGRLML	0.71 ± 0.046
SVSPRAPPILPP	0.723 ± 0.058

Source: the supplement of paper PMC10724198
